Measured values published in patent US20220306751A1 (MYTHIC THERAPEUTICS, published 2022).

T1: CD123 protein (R&D Systems Catalog No. 301-R3-025/CF) (Homo sapiens (Human), UniProt P26951 19-305)
T1 construct: Bought protein
T1 sequence: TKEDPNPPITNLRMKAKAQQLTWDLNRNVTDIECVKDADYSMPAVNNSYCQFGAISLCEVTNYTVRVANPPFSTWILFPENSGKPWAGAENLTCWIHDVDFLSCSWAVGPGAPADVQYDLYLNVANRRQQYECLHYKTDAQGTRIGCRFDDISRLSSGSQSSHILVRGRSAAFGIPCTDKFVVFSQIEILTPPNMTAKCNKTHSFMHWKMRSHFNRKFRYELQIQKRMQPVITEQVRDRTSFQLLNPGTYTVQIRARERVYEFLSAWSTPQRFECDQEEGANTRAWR

B1: MYT5476 (antibody, V domains shown)
VH: EVQLLESGGGLVQPGGSLRLSCAVSDYSITSGYYWNWIRQAPGKKLEWMGYISYDGSNNYNPSLKNGRITISRDTSKNTFYLQMNSLRAEDTAVYYCARGEHFYFDSWGQGTLVTVSS
VL: EIVLTQSPGTLSLSPGERATLSCKSSQSLFFGSTQKNYLAWYQQKPGQAPRLLIYWASTRESGIPDRFSGSGSGTDFTLTISRLEPEDFAVYYCQQYYNYPWTFGQGTKLEIK
notes: IgG
B2: MYT5495 (antibody, V domains shown)
VH: EVQLLESGGGLVQPGGSLRLSCAVSDYSITSGYYWNWIRQAPGKKLEWMGYISYDGSNNYNPSLKNGRITISRDTSKNTFYLQMNSLRAEDTAVYYCARGEGFYFDSWGQGTLVTVSS
VL: EIVLTQSPGTLSLSPGERATLSCKSSQSLFFGSTQKNYLHWYQQKPGQAPRLLIYWASTRESGIPDRFSGSGSGTDFTLTISRLEPEDFAVYYCQQYYNYPWTFGQGTKLEIK
notes: IgG
B3: IMGN632 (antibody, V domains shown)
VH: QVQLVQSGAEVKKPGASVKVSCKASGYIFTSSIMHWVRQAPGQGLEWIGYIKPYNDGTKYNEKFKGRATLTSDRSTSTAYMELSSLRSEDTAVYYCAREGGNDYYDTMDYWGQGTLVTVSS
VL: DIQMTQSPSSLSASVGDRVTITCRASQDINSYLSWFQQKPGKAPKTLIYRVNRLVDGVPSRFSGSGSGNDYTLTISSLQPEDFATYYCLQYDAFPYTFGQGTKVEIK
notes: IgG from Expi293 supernatant; also called MYT1251; starting ABPC
B4: MYT2758 (antibody, V domains shown)
VH: QVQLVQSGAEVKKPGASVKVSCKASGYIFTSSIMAWVRQAPGQGLEWIGYIKPYNDGTKYNEKFKGRATLTSDRSTSTAYMELSSLRSEDTAVYYCAREGGNDYYDHMDYWGQGTLVTVSS
VL: DIQMTQSPSSLSASVGDRVTITCRASQDINSYLSWFQQKPGKAPKTLIYRVNRLVDGVPSRFSGSGSGNDYTLTISSLQPEDFATYYCLQYDAFPYTFGQGTKVEIK
notes: IgG

What was measured:
[1] = target: T1, CD123 protein (R&D Systems Catalog No. …); assay: BLI, IgG on anti-human Fc sensor, pH 7.4 and pH 5.4
[2] = target: T2, cell surface CD123 on EOL-1 cells (CD123+) (human, UniProt P26951 19-378); assay: flow cytometry on EOL-1 (CD123+) cells, anti-human IgG Alexa Fluor 488; Example 16 calls the fitted value KD
T2 construct: EOL-1 cells, DSMZ ACC 386
Description: 100,000 EOL-1 cells (DSMZ ACC 386) were seeded per well in a 96 well deep well plate. IMGN632 and a pH engineered antibody variant were serially diluted at a 1:3 dilution in ice cold FC buffer (phosphate buffered saline (PBS), pH 7.4+2 mM ethylenediaminetetraacetic acid (EDTA)+2% (v/v) HI FBS). The plates were spun at 2,000 RPM for 2 minuets, the supernatant was removed, and 100 μL of diluted antibody was added to each well with final concentration ranging from 60 nM to 1 pM and incubated for 2 hours at 4° C. Post incubation, the cells were spun at 2000 rpm for 2 min and supernatant was discarded. Cells were washed twice with 500 μL of ice-cold FC buffer and resuspended with […]. The cells were then transferred from the deep well plate to 96 well round bottom plate, spun at 2000 rpm for 2 min and incubated with 100 μL of 10 μg/mL Alexa Fluor 488 conjugated goat anti-human IgG secondary antibody (ThermoFisher Scientific, A11013) for 30 min. Post incubation, cells were washed with FC buffer and resuspended in 100 μL of FC buffer to read on a BD Accuri C6 flow cytometer. Binding affinity was measured as a dissociation constant KD by GraphPad Prism assuming Michaelis-Menten binding kinetics.

Row | Binder | binding result [1] | IC50 [2]
1 | B1 | no binding (tested: 50 nM) | 
2 | B2 | no binding (tested: 50 nM) | 
3 | B3 |  | 0.034 nM
4 | B4 |  | 0.051 nM
